Set-up: species or system BALB/c mice
Details: mouse, in vivo

C[C@@H](O)[C@H](NC(=O)[C@@H]1CSSC[C@H](NC(=O)[C@@H](Cc2ccccc2)NC(=O)CN2CCN(CC(=O)O)CCN(CC(=O)O)CCN(CC(=O)O)CC2)C(=O)N[C@@H](Cc2ccc(O)cc2)C(=O)N[C@H](Cc2c[nH]c3ccccc23)C(=O)N[C@@H](CCCCN)C(=O)N[C@@H]([C@@H](C)O)C(=O)N1)C(=O)O [[^225Ac]Ac-DOTA-TATE, metal not drawn]
clearance of activity from the tissues: largely cleared

From PMC12866175 (European journal of nuclear medicine and molecular imaging, 2021)
